Source: US20160228502A1
Values joined by “and” are separate entries in the source; they are usually repeats but may differ in a detail not shown here. Equal entries are not always repeated. Blank lines part the entries; values can stand above or below the substance they belong to.

What was measured:
SERCA1-CFP (rabbit) [1] = target: SERCA1-CFP (rabbit) (UniProt P04191); assay: AFRET in COS7 cells
SERCA1-CFP (rabbit) [2] = target: SERCA1-CFP (rabbit) (UniProt P04191); assay: AFRET in living COS7 cells
SERCA1-CFP (rabbit) [3] = target: SERCA1-CFP (rabbit) (UniProt P04191); assay: AFRET (Δr=rCFP-rFRET) in COS7 cells
SERCA1-CFP (rabbit) [4] = target: SERCA1-CFP (rabbit) (UniProt P04191); assay: AFRET in COS7 cells, FLAG-SLN cotransfected
sAnk1-CFP = assay: AFRET in COS7 cells, sAnk1-CFP as donor
SERCA1-CFP (rabbit) [5] = target: SERCA1-CFP (rabbit) (UniProt P04191); assay: AFRET in COS7 cells, SERCA1-CFP as donor
[6] = target: sarco(endo)plasmic reticulum Ca^2+-ATPase 1 (SERCA1) (rabbit) (UniProt P04191); assay: amylose resin pull down from COS7 extracts expressing SERCA1, immunoblot densitometry
SLN-YFP (rabbit) = SLN-YFP (rabbit) (UniProt P42532); assay: AFRET in COS7 cells
[7] = target: sarco(endo)plasmic reticulum Ca^2+-ATPase 1 (SERCA1) (rabbit) (UniProt P04191); assay: cell-based or functional assay
[8] = target: sarco(endo)plasmic reticulum Ca^2+-ATPase 1 (SERCA1) (rabbit) (UniProt P04191); assay: coIP from COS7 extracts, densitometry
[9] = target: sarco(endo)plasmic reticulum Ca^2+-ATPase 1 (SERCA1) (rabbit) (UniProt P04191); assay: coIP with antibodies to sAnk1 from COS7 extracts, densitometry
[10] = target: sarco(endo)plasmic reticulum Ca^2+-ATPase 1 (SERCA1) (rabbit) (UniProt P04191); assay: coIP with antibodies to SERCA1 from COS7 extracts, densitometry
[11] = target: sarco(endo)plasmic reticulum Ca^2+-ATPase 1 (SERCA1) (rabbit) (UniProt P04191); assay: coIP with antibodies to SERCA1 from COS7 extracts, with or without FLAG-SLN
[12] = target: sarco(endo)plasmic reticulum Ca^2+-ATPase 1 (SERCA1) (rabbit) (UniProt P04191); assay: coIP with antibodies to SERCA1 from COS7 extracts, densitometry, with FLAG-SLN coexpressed

Chain of SERCA1-CFP (rabbit) (P04191 whole entry): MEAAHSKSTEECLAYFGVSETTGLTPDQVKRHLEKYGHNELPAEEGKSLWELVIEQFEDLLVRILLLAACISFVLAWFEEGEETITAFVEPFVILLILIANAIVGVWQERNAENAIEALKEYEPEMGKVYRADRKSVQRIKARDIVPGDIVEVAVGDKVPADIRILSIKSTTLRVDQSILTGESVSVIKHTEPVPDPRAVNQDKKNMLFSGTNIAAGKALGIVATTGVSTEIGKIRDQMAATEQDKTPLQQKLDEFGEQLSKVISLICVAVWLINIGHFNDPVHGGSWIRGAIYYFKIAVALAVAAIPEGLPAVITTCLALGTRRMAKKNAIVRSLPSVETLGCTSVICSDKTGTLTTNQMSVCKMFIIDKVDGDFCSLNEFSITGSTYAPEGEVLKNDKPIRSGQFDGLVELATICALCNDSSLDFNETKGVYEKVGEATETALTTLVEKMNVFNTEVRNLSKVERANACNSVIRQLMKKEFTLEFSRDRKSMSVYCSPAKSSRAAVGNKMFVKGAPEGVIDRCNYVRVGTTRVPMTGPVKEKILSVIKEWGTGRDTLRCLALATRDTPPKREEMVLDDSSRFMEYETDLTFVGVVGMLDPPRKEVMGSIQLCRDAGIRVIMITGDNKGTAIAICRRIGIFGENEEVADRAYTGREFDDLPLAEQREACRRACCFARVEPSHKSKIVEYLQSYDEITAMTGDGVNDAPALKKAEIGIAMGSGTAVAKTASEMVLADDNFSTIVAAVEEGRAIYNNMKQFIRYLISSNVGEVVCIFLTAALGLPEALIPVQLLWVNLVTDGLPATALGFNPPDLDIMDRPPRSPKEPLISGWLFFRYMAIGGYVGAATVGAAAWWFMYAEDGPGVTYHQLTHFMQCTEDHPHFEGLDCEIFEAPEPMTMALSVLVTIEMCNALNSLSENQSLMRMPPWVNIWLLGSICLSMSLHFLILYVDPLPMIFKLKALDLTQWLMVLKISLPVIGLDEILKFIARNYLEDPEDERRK
Chain of sarco(endo)plasmic reticulum Ca^2+-ATPase 1 (SERCA1) (rabbit) (P04191 whole entry): as above
Chain of SLN-YFP (rabbit) (P42532 whole entry): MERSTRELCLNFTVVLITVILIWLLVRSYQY

AFRET Δrmean (SERCA1-CFP (rabbit) [1]): 0.021
AFRET Δrmean (SERCA1-CFP (rabbit) [2]): 0.043
AFRET Δrmean (SERCA1-CFP (rabbit) [3]): 0.026
AFRET Δrmean (cells cotransfected with FLAG-SLN) (SERCA1-CFP (rabbit) [4]): 0.036
Substance: sAnk1-YFP

AFRET Δrmean (SERCA1-CFP (rabbit) [2]): 0.017
Substance: sAnk1 (all-L)-YFP

AFRET Δrmean (sAnk1-CFP): -0.028
AFRET Δrmean (SERCA1-CFP (rabbit) [5]): -0.035
Substance: dysferlin-YFP

fold SERCA1 pulled down relative to the MBP control [6]: 9 fold
Substance: sAnk1 (29-155)-MBP fusion protein (from UniProt P0AEX9 27-392)

AFRET Δrmean (SLN-YFP (rabbit)): 0.03
Substance: sAnk1-CFP

KCa2+ ([Ca^2+] required for half-maximal activation) of SERCA1 Ca^2+-ATPase, COS7 microsomes [7]: 501 nM
KCa2+ in pCa^2+ units, SERCA1 Ca^2+-ATPase, COS7 microsomes [7]: 6.3 pCa^2+ units
Mean Kca (nM), Ca^2+-ATPase assay in COS7 microsomes, FIG. 6D [7]: 502 nM
Mean Kca (pCa), Ca^2+-ATPase assay in COS7 microsomes, FIG. 6D [7]: 6.3 pCa
ΔKCa2+ relative to SERCA1 Alone [7]: -0.02 pCa^2+ units
ΔKCa2+, COS7 microsomes [7]: -0.01 pCa^2+ units
reduction in coIP, normalized to coIP of SERCA1 and sAnk1 (WT) [8]: 50% and 34% to 61% (2×)
percent of SERCA1 coimmunoprecipitated compared to WT [9]: 49%
percent of sAnk1 (all-L) coimmunoprecipitated compared to WT sAnk1 [10]: 49%
Substance: sAnk1 (all-L)

fold enhancement of the interaction in the presence of FLAG-SLN [11]: 2.7 fold
Substance: sAnk1 (29-155)-FLAG

HEK 293 mean Kca (nM), Ca^2+-ATPase assay [7]: 680 nM
HEK 293 mean Kca (pCa), Ca^2+-ATPase assay [7]: 6.17 pCa
KCa2+ ([Ca^2+] required for half-maximal activation) of SERCA1 Ca^2+-ATPase, COS7 microsomes, all assays compiled [7]: 759 nM
KCa2+ in pCa^2+ units, SERCA1 Ca^2+-ATPase, COS7 microsomes, all assays compiled [7]: 6.12 pCa^2+ units
Mean Kca (nM), Ca^2+-ATPase assay in COS7 microsomes, FIG. 6B [7]: 708 nM
Mean Kca (nM), Ca^2+-ATPase assay in COS7 microsomes, FIG. 6D [7]: 794 nM
Mean Kca (pCa), Ca^2+-ATPase assay in COS7 microsomes, FIG. 6B [7]: 6.15 pCa
Mean Kca (pCa), Ca^2+-ATPase assay in COS7 microsomes, FIG. 6D [7]: 6.1 pCa
shift of SERCA1's apparent Ca^2+ affinity, COS7 microsomes [7]: -0.18 pCa^2+ units
ΔKCa2+ in HEK293 microsomes [7]: -0.21 pCa^2+ units
ΔKCa2+ relative to SERCA1 Alone [7]: -0.2 pCa^2+ units
ΔKCa2+, COS7 microsomes, experiment with sAnk1 (all-L) [7]: -0.22 pCa^2+ units
fold increase in coIP with SERCA1 on addition of FLAG-SLN, against co-transfection of SERCA1 and sAnk1 alone [12]: 2.6 fold
Substance: sAnk1-FLAG (C-terminal FLAG-tagged sAnk1)
